Assay results published in article PMC8219831, “Native mass spectrometry analyses of chaperonin complex TRiC/CCT reveal subunit N-terminal processing and re-association patterns” (Scientific Reports, 2021).

B1: human TRiC subunit CCT4 (natural protein, UniProt P50991 2-539, looked up)
chain: PENVAPRSGATAGAAGGRGKGAYQDRDKPAQIRFSNISAAKAVADAIRTSLGPKGMDKMIQDGKGDVTITNDGATILKQMQVLHPAARMLVELSKAQDIEAGDGTTSVVIIAGSLLDSCTKLLQKGIHPTIISESFQKALEKGIEILTDMSRPVELSDRETLLNSATTSLNSKVVSQYSSLLSPMSVNAVMKVIDPATATSVDLRDIKIVKKLGGTIDDCELVEGLVLTQKVSNSGITRVEKAKIGLIQFCLSAPKTDMDNQIVVSDYAQMDRVLREERAYILNLVKQIKKTGCNVLLIQKSILRDALSDLALHFLNKMKIMVIKDIEREDIEFICKTIGTKPVAHIDQFTADMLGSAELAEEVNLNGSGKLLKITGCASPGKTVTIVVRGSNKLVIEEAERSIHDALCVIRCLVKKRALIAGGGAPEIELALRLTEYSRTLSGMESYCVRAFADAMEVIPSTLAENAGLNPISTVTELRNRHAQGEKTAGINVRKGGISNILEELVVQPLLVSVSALTLATETVRSILKIDDVVNTR
notes: CCT4 subunit of human TRiC; initiator methionine removed, proline exposed, not acetylated (from the measured mass); also called CCTδ; source: Hi5 (Trichoplusia ni) cells, baculovirus pYC35 co-expressing CCT1-8; purified as hTRiC (calmodulin resin, monoQ, SEC); released by RP-HPLC or by 25% DMSO or methanol
B2: human TRiC subunit CCT2 (natural protein, UniProt P78371 2-535, looked up)
chain: ASLSLAPVNIFKAGADEERAETARLTSFIGAIAIGDLVKSTLGPKGMDKILLSSGRDASLMVTNDGATILKNIGVDNPAAKVLVDMSRVQDDEVGDGTTSVTVLAAELLREAESLIAKKIHPQTIIAGWREATKAAREALLSSAVDHGSDEVKFRQDLMNIAGTTLSSKLLTHHKDHFTKLAVEAVLRLKGSGNLEAIHIIKKLGGSLADSYLDEGFLLDKKIGVNQPKRIENAKILIANTGMDTDKIKIFGSRVRVDSTAKVAEIEHAEKEKMKEKVERILKHGINCFINRQLIYNYPEQLFGAAGVMAIEHADFAGVERLALVTGGEIASTFDHPELVKLGSCKLIEEVMIGEDKLIHFSGVALGEACTIVLRGATQQILDEAERSLHDALCVLAQTVKDSRTVYGGGCSEMLMAHAVTQLANRTPGKEAVAMESYAKALRMLPTIIADNAGYDSADLVAQLRAAHSEGNTTAGLDMREGTIGDMAILGITESFQVKRQVLLSAAEAAEVILRVDNIIKAAPRKRVPDHHPC
modifications: N-terminal acetylation
notes: CCT2 subunit of human TRiC; initiator methionine removed (from the measured mass); also called CCTβ; source: Hi5 (Trichoplusia ni) cells, baculovirus pYC35 co-expressing CCT1-8; purified as hTRiC (calmodulin resin, monoQ, SEC); released by RP-HPLC or by 25% DMSO or methanol

Columns and labels:
[1] = target: human TRiC subunit CCT8 (human) (UniProt P50990); test: native MS; hTRiC in ammonium acetate pH 7.5 disrupted with 25% (v/v) DMSO, analysed within 30 min; dimers assigned by mass within 12 Da
[2] = target: the molecule itself; test: intact mass spectrometry of reverse phase fractions (denaturing); RP-HPLC fractions of hTRiC in acetonitrile/TFA elution buffer, 0.1-0.6 μM, nanoelectrospray, QExactive Plus EMR; partially unfolded dimers; dimer masses fitted assuming disulfide formation (-2 Da)

Molecule	percent of all dimer signal [1]	stoichiometry N [2]
human TRiC subunit CCT8 (from UniProt P50990 2-548) (natural protein)	15%	
B1		2
B2		2
